Data as given in US7189691B2, “Methods and compositions for treating leukemia” (The Administrators of the Tulane Educational Fund, priority 2004, dated 2007).
Ends that are not written are not given here.

How the values were obtained:
AF4-AF9 interaction = target: T1, AF4-AF9 interaction (Homo sapiens, UniProt P42568); test: Enzyme-linked protein binding assay, GST-AF4(749-775) and biotinylated AF9; settings: peptide 20 μg/ml; FIG. 2A
T1 construct: made in house; host or cells: GST-AF4 from E. coli; AF9 by coupled in vitro transcription/translation (Promega)
T1 sequence (P42568 211-568): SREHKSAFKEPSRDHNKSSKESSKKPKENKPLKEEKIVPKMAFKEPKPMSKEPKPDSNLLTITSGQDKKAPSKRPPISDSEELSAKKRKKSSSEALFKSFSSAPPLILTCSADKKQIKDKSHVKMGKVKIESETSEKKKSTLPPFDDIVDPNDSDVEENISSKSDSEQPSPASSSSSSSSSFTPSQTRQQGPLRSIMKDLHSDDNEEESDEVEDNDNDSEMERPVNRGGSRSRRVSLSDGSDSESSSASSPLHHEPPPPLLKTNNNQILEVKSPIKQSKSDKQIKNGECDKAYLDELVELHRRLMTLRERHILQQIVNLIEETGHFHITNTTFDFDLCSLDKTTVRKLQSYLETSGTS
Experimental: Next, an enzyme-linked protein binding assay was developed as a potential high throughput tool to semi-quantitatively assess the ability of various compounds to disrupt the AF4-AF9 interaction in vitro (FIGS. 2A and 2B).
GST-AF4 (749–775) SEQ ID NO: 107 was bound to glutathione-coated 96-well plates and incubated with biotinylated AF9 in conjunction with 20 μg/ml of the following peptides: • (a) Pen-[…], a fusion protein of PENETRATIN™ transporter peptide to the amino terminus of […](SEQ ID NO: 110, PFmut), • (b) Pen-[…], a fusion protein of the transporter protein PENETRATIN™ to the amino terminus of […](SEQ ID NO: 2; or PFWT), • (c) […] or […](SEQ ID NO: 111); • (d) […] or […] (SEQ ID NO: 112); • (e) […] or […](SEQ ID NO: 113), or with • (f) DMSO, or • (g) GST-Cx, a control.
The plate was washed and the retention of AF9 was determined by a colorimetric assay using streptavidin-alkaline phosphatase and pNPP as a substrate. […] At this same peptide concentration, PFmut (a) in col. […] The 10 amino acid peptide (d) in col. 6 is the smallest molecule found to have activity in vitro.

B1 leukemia cell line = test: MTT viability assay; assay type: cell-based; settings: 72 h, differing concentrations
Experimental: All cell lines were maintained in RPMI 1640+10% FCS. 100 μl aliquots of cell suspension (5×10^5 cells/ml) were cultured in flat-bottomed 96 well plates in the presence of different concentrations of peptides. After 72 h incubation at 37° C. in humidified air containing 5% CO2, viable cell number was determined by MTT assay as follows: 10 μl of 3-[4,5-dimethylthiazol-2-yl]-2,5-diphenyl tetrazolium bromide (MTT) (5 mg/ml concentration) (Sigma) was added to each well and incubated further for 6 h. Formazan crystals that are formed during incubation were dissolved in 100 μl of acidified isopropanol. The optical density at 550 nm (which is linearly related to the number of viable cells) was measured using a plate spectrophotometer. Growth characteristics of the leukemia cell lines were also determined for cells by Trypan Blue exclusion.

Row | Substance | AF9 binding to GST-AF4 (retention of AF9) (AF4-AF9 interaction) | cell viability (B1 leukemia cell line)
1 | LWVKIDLDLLSR [(c)] | block AF9 binding | –
2 | Leu-Trp-Val-Lys-Ile-Asp-Leu-Asp-Leu-Leu- (LWVKIDLDLL; structurally based on a fragment of the naturally occuring human and murine AF4 protein family members) [(d)] | block AF9 binding | –
3 | Lys-Lys-Lys-Lys-Lys-Lys-Arg-Lys-Val-Leu-Ile-Val-Arg-Ile-Asp-Leu-Asp-Leu-Leu-Ser- (KKKKKKRKVLIVRIDLDLLS; structurally based on a fragment of the naturally occuring human and murine AF4 protein family members) [SPK4] | – | inhibits
4 | WVKIDLDL [(e)] | did not interfere with AF9 binding | –
